Experimental findings from ChEMBL document CHEMBL4476871, “SULFAMIDE AND SULFAMATE INHIBITORS OF hHint1” (2018) are described below.

Compound in data set [1]: Nc1nc2c(ncn2[C@@H]2O[C@H](COP(=O)(O)NCCc3c[nH]c4ccccc34)[C@@H](O)[C@H]2O)c(=O)[nH]1
Description: (§1) Inhibition of full-length human N-terminal His6-tagged Hint1 expressed in Escherichia coli Rosetta 2 pLysS cells assessed as ratio of Kcat to Km.

Compound in data set [2]: Nc1ncnc2c1ncn2[C@@H]1O[C@H](COP(=O)(O)OC(=O)CCc2c[nH]c3ccccc23)[C@@H](O)[C@H]1O
Described as §1.

B1: Adenosine 5'-monophosphoramidase HINT1 (Homo sapiens), P49773 (protein)
chain: MADEIAKAQVARPGGDTIFGKIIRKEIPAKIIFEDDRCLAFHDISPQAPTHFLVIPKKHISQISVAEDDDESLLGHLMIVGKKCAADLGLNKGYRMVVNEGSDGGQSVYHVHLHVLGGRQMHWPPG
With B1, the kcat/Km in data set [1] and in data set [2] was 1.1 ×10⁷ /M/s each time.
